Molecular target: A/Hong_Kong/4801/2014 (H3N2) HA 1-676 Y98F GG lkr dn5B.SA (influenza A virus A/Hong_Kong/4801/2014 …)
Experiment: in vitro co-assembly; SEC, SDS-PAGE of elution peaks, negative-stain EM

B1: I53-dn5 A (designed binder)
chain: MGKYDGSKLRIGILHARWNAEIILALVLGALKRLQEFGVKRENIIIETVPGSFELPYGSKLFVEKQKRLGKPLDAIIPIGVLIKGSTMHFEYICDSTTHQLMKLNFELGIPVIFGVLTCLTDEQAEARAGLIEGKMHNHGEDWGAAAVEMATKFN
  binding result: binds
